Experimental data reported in the DeepSol protein solubility set.

experiment: soluble on expression in E. coli; label from the status in PepcDB or PDB records

Sequence | soluble on expression in E. coli
MGSDKIHHHHHHMDIRQLKTFIAIAEHGTFAKAADAVGLTPSAVSQQIQALESEVRGELFDRATRPIMLNGHGLQMLEAARTLVRDADNIIDAISGRAVSGTFTIGSVRSSALSLLPLSIVALKADYPDLRIKLQVANTDELLKDVMSGRLDCAMVAEYSGIPSALRWQPFINEPLLVIGPNGTPKMSGFDMLSKLPYVRFNSKFRLAQIIETELAKTRIVPNLIAEIDTIASVVSCVIHGLGVSVVPWIALRDIAAPIVAVQFGEPQILRPIGLLERRSGTRAQIIDRLHQNLARLSDPYGIPR | not soluble
MGSDKIHHHHHHMDITALQQQLELIQQNDYTQLRHIDINELTLHMLQYIGTTDSYVRYQLIYKCFVHFIHHEFLMDDQLKLLLQTCLSDEYLYCDIYSPHSDGVFTRSYTVSLIALILQFANSHYFCTEEDIEEIKNKLITYTNLETDFRGYIENKGWAHCLAHVSDAFTEIVHNSYTTFEWYEELIHCLLNKIFIPSDLFHNNEDERIVTPLLAMLYHDFPQDELISIIQKKIKRLPQIRKRLSLNEYCILCANIKTFLRTLFFRTKDDHNLAFTARKTERMLKELPNYY | not soluble
MGSDKIHHHHHHMDKLSFNIFPNVNFIDLCMYQFGHEQCEPGHSFGPATRNHYLFHYVLSGTGTLMADNAKGITQTYNIKSGQGFLIFPGQINTYIADDKLPWEYIWIEFDGLRVKEALTTTELTKNNPVYHTHSKDIREKLVEEMLYITRHPSESPYHLIGHMYLFLDYLMQSAKSSKLVPGGKMSDFYIKEAMNYIEQNFQNDISIEDIAGVCGINRSYLGKIFKNSVGHSPQEFLMNYRMIKATELLKLTSLSIADVGSAVGYENQLHFSRAFKNIYGVAPREWRNEHK | not soluble
MGSDKIHHHHHHMDLRSDALQILKDTSRTFYIPISILPSGLQEAVASAYLCMRAIDEIEDHPTLDNPTKAKLLRGISLTLQAGVDGFPVDAFAAGFSGYENTLAEVTMRIREWSLLAPETIAPRIWDATAAMSDRMAYWAENNWKIYTESDLDRYTFGVAGAVGLLLSDLWTWYDGTQTNRTLAIGFGRGLQAVNILRNHVEDLGRGVSFFPDGWDANNMQEYALRNLALADAYTQALPDGPALNFCQIPLTLAHGTIDAIANGKEKLSRNDVMALLEHLITFNLKAG | not soluble
MGSDKIHHHHHHMDLWKLYQPGTPAAIVAWGQLGTAHAKTTYGLLRHSRLFKPVCVVAEHEGKMASDFVKPVRYDVPVVSSVEKAKEMGAEVLIIGVSNPGGYLEEQIATLVKKALSLGMDVISGLHFKISQQTEFLKIAHENGTRIIDIRIPPLELDVLRGGIYRKKIKVVGVFGTDCVVGKRTTAVQLWERALEKGIKAGFLATGQTGILIGADAGYVIDAVPADFVSGVVEKAVLKLEKTGKEIVFVEGQGALRHPAYGQVTLGLLYGSNPDVVFLVHDPSRDHFESFPEIPKKPDFEEERRLIETLSNAKVIGGVSLNGGFETDLPVYDPFNTDDLDEMLERAMVW | soluble
MGSDKIHHHHHHMDNAIVTSPSGSSPAEAQAFLDAHPEIEAFDIVLTDANGVGRGKIVRRHELKSIFEGGRHMPISILGLDITGEDVHETGLIWTTGDGDLRAWPIPGTLVPLYGTNPPRGQVLMAMYHLDGQPMSSDPRLALARQVDILAAKGLYPAGAFELEFFLLANERDADGKVQPARAVLDGRVSGKTEVYSVDHLHGMEPLFSDIYAAAKAQGIPAETVISEYAPGQYELTLNYRKDVMRAADDLVMLKRLVRAQARRHGVTACFMAKPIEKYAGSGMHFHVSLQDKAGRNVFAEAGGESWSLPLLQGLGGLIQTMAESMLVFAPHANSWRRFVSQSYAPVAPTWGVNNRSVALRVPAGDAKNRRIEHRPSGVDANPYLIAATVLAGIVKGLDEGLDPGPETTGNGYEAAVTRTTMPADWRAAIEAAKASSFLKGALGEDLHRTFVAIKQSEYLRVARTVSELDYHLYLHEV | not soluble
MGSDKIHHHHHHMDNLMLNNKIYLEGTCVSNLEFSHEMYGEGFYTFKISVNRLSDVKDILPVTISERLLTEIDIKEGAELIIEGQLRSYNKFIEGSNRLILTVFARDVQPCIEKSKNPNQIFLDGYICKEPIYRTTPFGREIADILLAVNRPYNKSDYIPTISWGRNSRFCKTLNVGDNIRVWGRLQSRKYQKKVGEDEVVTKTAYEVSISKLEYADEIDEEIDKSVENLAE | not soluble
